Where no end group is shown, it is not given here.
Legend:
[1] = target: C. elegans PEX-5 TPR domain (267 aa), Gal4p DNA-binding domain fusion (pSL8) (C. elegans); experiment: two-hybrid; yeast strain PCY3; Pex5 TPR domain in pGBT9 (Gal4p DNA-binding domain) with Gal4p activation domain-peptide fusions in pGAD GH; b-galactosidase activity measured with O-nitrophenyl-b-D-galactoside on cells grown at 30 C in liquid selective medium; mean of three independent experiments per strain; details: scale: nmol O-nitrophenyl-b-D-galactoside hydrolysed/min/mg protein
[2] = target: T1, S. cerevisiae Pex5p TPR domain (305 aa), Gal4p DNA-binding domain fusion (pAH987) (S. cerevisiae); experiment: as above; details: scale: nmol O-nitrophenyl-b-D-galactoside hydrolysed/min/mg protein
T1 sequence (P35056 whole entry, looked up): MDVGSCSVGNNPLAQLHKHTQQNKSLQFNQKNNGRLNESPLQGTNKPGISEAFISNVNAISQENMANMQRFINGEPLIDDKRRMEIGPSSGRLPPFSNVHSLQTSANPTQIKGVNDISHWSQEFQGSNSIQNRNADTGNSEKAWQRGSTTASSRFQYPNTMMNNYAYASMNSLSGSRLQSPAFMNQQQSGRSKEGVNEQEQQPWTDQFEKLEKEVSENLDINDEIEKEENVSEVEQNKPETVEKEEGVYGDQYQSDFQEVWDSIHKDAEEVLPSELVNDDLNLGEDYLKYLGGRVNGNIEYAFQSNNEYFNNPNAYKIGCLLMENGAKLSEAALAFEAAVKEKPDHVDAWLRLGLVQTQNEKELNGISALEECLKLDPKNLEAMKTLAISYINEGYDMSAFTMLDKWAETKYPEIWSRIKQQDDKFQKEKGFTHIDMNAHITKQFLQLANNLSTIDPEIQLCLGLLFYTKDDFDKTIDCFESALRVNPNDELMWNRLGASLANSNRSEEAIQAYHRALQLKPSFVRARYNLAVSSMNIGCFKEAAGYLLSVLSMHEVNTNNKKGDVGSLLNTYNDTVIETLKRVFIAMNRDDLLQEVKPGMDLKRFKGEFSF

Row | Binder | b-Galactosidase activity [1] | b-Galactosidase activity [2]
1 | Gal4p-NGMTRSGRQGGGFAKL | 352 | –
2 | Gal4p-QRKANGRDRGGWWAKL | 631 | –
3 | Gal4p-TWNRETKGLNAVYGKL | 90.3 | –
4 | Gal4p-GKNRGSESHGSARQKL | 57.9 | –
5 | Gal4p-CERSKL [Gal4p-CERSKL] | – | 163
6 | Gal4p-RQRELSANALGGLAKL | 447 | –
7 | Gal4p-KRVWRRQWSTGRKLKL | 3.8 | –
8 | Gal4p-SGGVVARAAKM | 293 | –

Next, values leading:

Row | b-Galactosidase activity [1] | b-Galactosidase activity [2] | Binder
9 | 4.4 | – | Gal4p-WYGPGPGCCRRRDLKL (cysteine pairing not given here)
10 | 143 | – | Gal4p-EGLIVMLERGKL
11 | – | 39 | Gal4p-FEWGSQGWTRGRMHML

Source: paper PMC2448379
